What was measured:
[1] = molecular target: PfPPR1 minus the His6-TRX tag (tag cleaved by HRV 3C protease) (Plasmodium falciparum); assay: AUC; sedimentation velocity, PfPPR1 minus His6-TRX tag at 1.8 mg/mL, continuous c(s) distribution model
[2] = molecular target: His6-TRX-PfPPR1 (Plasmodium falciparum apicoplast pentatricopeptide repeat protein PPR1, minus the bipartite leader, with N-terminal TRX-His6 tag) (Plasmodium falciparum); assay: SEC; S200 10/300 analytical gel filtration column in 50 mM Tris pH 8.0, 200 mM NaCl, 5 mM DTT; sample in 10 mM HEPES pH 7.5, 20 mM KCl, 1 mM MgCl2, 1 mM DTT, 15 min at room temperature; control without RNA (with RNA 4 or RNA 5 the dimer eluted earlier, with RNA bound)
[3] = molecular target: T1, His6-TRX-PfPPR1 (Plasmodium falciparum, UniProt Q8IM30 121-608); assay: pull-down; Pull-down: 10 mM HEPES pH 7.5, 20 mM KCl, 1 mM MgCl2, 1 mM DTT, room temperature 15 min; 400 nM biotinylated RNA, 800 nM protein (Results state 1:1 molar). Gel; details: protein: recombinant; tags: N-terminal TRX-His6 (HRV 3C cleavable); chain copies: 2; label: 3' biotin (pull-down)
T1 sequence: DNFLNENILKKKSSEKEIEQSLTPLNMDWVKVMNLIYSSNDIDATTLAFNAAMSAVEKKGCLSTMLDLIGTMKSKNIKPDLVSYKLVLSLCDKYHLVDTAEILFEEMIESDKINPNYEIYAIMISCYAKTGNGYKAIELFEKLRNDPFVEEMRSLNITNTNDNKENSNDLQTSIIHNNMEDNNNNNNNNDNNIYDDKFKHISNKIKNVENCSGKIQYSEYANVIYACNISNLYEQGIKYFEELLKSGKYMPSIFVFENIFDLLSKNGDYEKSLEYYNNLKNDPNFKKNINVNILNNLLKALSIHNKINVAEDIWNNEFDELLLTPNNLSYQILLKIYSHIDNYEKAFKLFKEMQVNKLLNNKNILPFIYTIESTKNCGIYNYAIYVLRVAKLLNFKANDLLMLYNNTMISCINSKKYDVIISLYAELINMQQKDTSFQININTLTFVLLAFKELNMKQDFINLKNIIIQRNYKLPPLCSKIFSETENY

Row | Molecule | binding result [3] | other results
1 | PfPPR1 minus the His6-TRX tag (tag cleaved by HRV 3C protease) (natural protein) | – | stoichiometry N [1]: 2
2 | His6-TRX-PfPPR1 (Plasmodium falciparum apicoplast pentatricopeptide repeat protein PPR1, minus the bipartite leader, with N-terminal TRX-His6 tag) (natural protein) | – | stoichiometry N [2]: 2
3 | ACGACAUUAUAUGGUCGGA (ssRNA) [RNA oligo 1] | binds | –
4 | ACGACAUUAUAAGGUCGGA (ssRNA) [RNA oligo 2] | binds | –
5 | ACGACAUGACGAGGUCGGA (ssRNA) [RNA oligo 3] | no binding | –

Source: PMC6899631, “An essential pentatricopeptide repeat protein in the apicomplexan remnant chloroplast”
